For 28 molecules, Ki results are on record in patent US20260193293A1, “PEPTIDES CAPABLE OF INHIBITING PROTEIN-PROTEIN INTERACTIONS AT GABAB1A SUBUNIT AND USES THEREOF” (UNIVERSITY OF COPENHAGEN, priority 2022, published 2026).

To fix the notation:
B1: …(N-Me-T)GDED (peptide)
peptide: Ac-ETEFIAWGP[NMeT]GDED-NH2
SMILES: CC[C@H](C)[C@H](NC(=O)[C@H](Cc1ccccc1)NC(=O)[C@H](CCC(=O)O)NC(=O)[C@@H](NC(=O)[C@H](CCC(=O)O)NC(C)=O)[C@@H](C)O)C(=O)N[C@@H](C)C(=O)N[C@@H](Cc1c[nH]c2ccccc12)C(=O)NCC(=O)N1CCC[C@H]1C(=O)N(C)[C@H](C(=O)NCC(=O)N[C@@H](CC(=O)O)C(=O)N[C@@H](CCC(=O)O)C(=O)N[C@@H](CC(=O)O)C(N)=O)[C@@H](C)O
B2: … (peptide)
peptide: Ac-PWAIVWGATVSRED-NH2
B3: ETe… (peptide)
peptide: Ac-ET[dE]FIAWGPTGDED-NH2
B4: …dED (peptide)
peptide: Ac-ETEFIAWGPTG[dD]ED-NH2
B5: … (peptide)
peptide: Ac-PWAAVWGPTVSRED-NH2
B6: ETEFIA(N-Me-W)GPTGDED (peptide)
peptide: Ac-ETEFIA[NMeW]GPTGDED-NH2
SMILES: CC[C@H](C)[C@H](NC(=O)[C@H](Cc1ccccc1)NC(=O)[C@H](CCC(=O)O)NC(=O)[C@@H](NC(=O)[C@H](CCC(=O)O)NC(C)=O)[C@@H](C)O)C(=O)N[C@@H](C)C(=O)N(C)[C@@H](Cc1c[nH]c2ccccc12)C(=O)NCC(=O)N1CCC[C@H]1C(=O)N[C@H](C(=O)NCC(=O)N[C@@H](CC(=O)O)C(=O)N[C@@H](CCC(=O)O)C(=O)N[C@@H](CC(=O)O)C(N)=O)[C@@H](C)O
B7: peptide 38 (Ac-ETEFIAWG(N-Me-G)TGDED-NH2) (peptide)
peptide: Ac-ETEFIAWG[Sar]TGDED-NH2
SMILES: CC[C@H](C)[C@H](NC(=O)[C@H](Cc1ccccc1)NC(=O)[C@H](CCC(=O)O)NC(=O)[C@@H](NC(=O)[C@H](CCC(=O)O)NC(C)=O)[C@@H](C)O)C(=O)N[C@@H](C)C(=O)N[C@@H](Cc1c[nH]c2ccccc12)C(=O)NCC(=O)N(C)CC(=O)N[C@H](C(=O)NCC(=O)N[C@@H](CC(=O)O)C(=O)N[C@@H](CCC(=O)O)C(=O)N[C@@H](CC(=O)O)C(N)=O)[C@@H](C)O
B8: …(N-Me-G)DED (peptide)
peptide: Ac-ETEFIAWGPT[Sar]DED-NH2
SMILES: CC[C@H](C)[C@H](NC(=O)[C@H](Cc1ccccc1)NC(=O)[C@H](CCC(=O)O)NC(=O)[C@@H](NC(=O)[C@H](CCC(=O)O)NC(C)=O)[C@@H](C)O)C(=O)N[C@@H](C)C(=O)N[C@@H](Cc1c[nH]c2ccccc12)C(=O)NCC(=O)N1CCC[C@H]1C(=O)N[C@H](C(=O)N(C)CC(=O)N[C@@H](CC(=O)O)C(=O)N[C@@H](CCC(=O)O)C(=O)N[C@@H](CC(=O)O)C(N)=O)[C@@H](C)O
B9: … (peptide)
peptide: Ac-PWAIVWGPAVSRED-NH2
B10: ET(N-Me-E)… (peptide)
peptide: Ac-ET[NMeE]FIAWGPTGDED-NH2
SMILES: CC[C@H](C)[C@H](NC(=O)[C@H](Cc1ccccc1)NC(=O)[C@H](CCC(=O)O)N(C)C(=O)[C@@H](NC(=O)[C@H](CCC(=O)O)NC(C)=O)[C@@H](C)O)C(=O)N[C@@H](C)C(=O)N[C@@H](Cc1c[nH]c2ccccc12)C(=O)NCC(=O)N1CCC[C@H]1C(=O)N[C@H](C(=O)NCC(=O)N[C@@H](CC(=O)O)C(=O)N[C@@H](CCC(=O)O)C(=O)N[C@@H](CC(=O)O)C(N)=O)[C@@H](C)O
B11: … (peptide)
peptide: Ac-PWAIVWAPTVSRED-NH2
B12: … (peptide)
peptide: Ac-AWAIVWGPTVSRED-NH2
B13: …d (peptide)
peptide: Ac-ETEFIAWGPTGDE[dD]-NH2
B14: … (peptide)
peptide: Ac-PWAIVWGPTASRED-NH2
B15: …eD (peptide)
peptide: Ac-ETEFIAWGPTGD[dE]D-NH2
B16: (N-Me-E)… (peptide)
peptide: Ac-[NMeE]TEFIAWGPTGDED-NH2
SMILES: CC[C@H](C)[C@H](NC(=O)[C@H](Cc1ccccc1)NC(=O)[C@H](CCC(=O)O)NC(=O)[C@@H](NC(=O)[C@H](CCC(=O)O)N(C)C(C)=O)[C@@H](C)O)C(=O)N[C@@H](C)C(=O)N[C@@H](Cc1c[nH]c2ccccc12)C(=O)NCC(=O)N1CCC[C@H]1C(=O)N[C@H](C(=O)NCC(=O)N[C@@H](CC(=O)O)C(=O)N[C@@H](CCC(=O)O)C(=O)N[C@@H](CC(=O)O)C(N)=O)[C@@H](C)O
B17: ETEFIAWGpTGDED (peptide)
peptide: Ac-ETEFIAWG[dP]TGDED-NH2
B18: ETEf… (peptide)
peptide: Ac-ETE[dF]IAWGPTGDED-NH2
B19: ETE(N-Me-F)… (peptide)
peptide: Ac-ETE[NMeF]IAWGPTGDED-NH2
SMILES: CC[C@H](C)[C@H](NC(=O)[C@H](Cc1ccccc1)N(C)C(=O)[C@H](CCC(=O)O)NC(=O)[C@@H](NC(=O)[C@H](CCC(=O)O)NC(C)=O)[C@@H](C)O)C(=O)N[C@@H](C)C(=O)N[C@@H](Cc1c[nH]c2ccccc12)C(=O)NCC(=O)N1CCC[C@H]1C(=O)N[C@H](C(=O)NCC(=O)N[C@@H](CC(=O)O)C(=O)N[C@@H](CCC(=O)O)C(=O)N[C@@H](CC(=O)O)C(N)=O)[C@@H](C)O
B20: …(N-Me-E)D (peptide)
peptide: Ac-ETEFIAWGPTGD[NMeE]D-NH2
SMILES: CC[C@H](C)[C@H](NC(=O)[C@H](Cc1ccccc1)NC(=O)[C@H](CCC(=O)O)NC(=O)[C@@H](NC(=O)[C@H](CCC(=O)O)NC(C)=O)[C@@H](C)O)C(=O)N[C@@H](C)C(=O)N[C@@H](Cc1c[nH]c2ccccc12)C(=O)NCC(=O)N1CCC[C@H]1C(=O)N[C@H](C(=O)NCC(=O)N[C@@H](CC(=O)O)C(=O)N(C)[C@@H](CCC(=O)O)C(=O)N[C@@H](CC(=O)O)C(N)=O)[C@@H](C)O
B21: … (peptide)
peptide: Ac-PAAIVWGPTVSRED-NH2
B22: ETEF(N-Me-I)… (peptide)
peptide: Ac-ETEF[NMeI]AWGPTGDED-NH2
SMILES: CC[C@H](C)[C@@H](C(=O)N[C@@H](C)C(=O)N[C@@H](Cc1c[nH]c2ccccc12)C(=O)NCC(=O)N1CCC[C@H]1C(=O)N[C@H](C(=O)NCC(=O)N[C@@H](CC(=O)O)C(=O)N[C@@H](CCC(=O)O)C(=O)N[C@@H](CC(=O)O)C(N)=O)[C@@H](C)O)N(C)C(=O)[C@H](Cc1ccccc1)NC(=O)[C@H](CCC(=O)O)NC(=O)[C@@H](NC(=O)[C@H](CCC(=O)O)NC(C)=O)[C@@H](C)O
B23: Et… (peptide)
peptide: Ac-E[dT]EFIAWGPTGDED-NH2
B24: E(N-Me-T)… (peptide)
peptide: Ac-E[NMeT]EFIAWGPTGDED-NH2
SMILES: CC[C@H](C)[C@H](NC(=O)[C@H](Cc1ccccc1)NC(=O)[C@H](CCC(=O)O)NC(=O)[C@H]([C@@H](C)O)N(C)C(=O)[C@H](CCC(=O)O)NC(C)=O)C(=O)N[C@@H](C)C(=O)N[C@@H](Cc1c[nH]c2ccccc12)C(=O)NCC(=O)N1CCC[C@H]1C(=O)N[C@H](C(=O)NCC(=O)N[C@@H](CC(=O)O)C(=O)N[C@@H](CCC(=O)O)C(=O)N[C@@H](CC(=O)O)C(N)=O)[C@@H](C)O
B25: …(N-Me-D)ED (peptide)
peptide: Ac-ETEFIAWGPTG[NMeD]ED-NH2
SMILES: CC[C@H](C)[C@H](NC(=O)[C@H](Cc1ccccc1)NC(=O)[C@H](CCC(=O)O)NC(=O)[C@@H](NC(=O)[C@H](CCC(=O)O)NC(C)=O)[C@@H](C)O)C(=O)N[C@@H](C)C(=O)N[C@@H](Cc1c[nH]c2ccccc12)C(=O)NCC(=O)N1CCC[C@H]1C(=O)N[C@H](C(=O)NCC(=O)N(C)[C@@H](CC(=O)O)C(=O)N[C@@H](CCC(=O)O)C(=O)N[C@@H](CC(=O)O)C(N)=O)[C@@H](C)O
B26: …(N-Me-D) (peptide)
peptide: Ac-ETEFIAWGPTGDE[NMeD]-NH2
SMILES: CC[C@H](C)[C@H](NC(=O)[C@H](Cc1ccccc1)NC(=O)[C@H](CCC(=O)O)NC(=O)[C@@H](NC(=O)[C@H](CCC(=O)O)NC(C)=O)[C@@H](C)O)C(=O)N[C@@H](C)C(=O)N[C@@H](Cc1c[nH]c2ccccc12)C(=O)NCC(=O)N1CCC[C@H]1C(=O)N[C@H](C(=O)NCC(=O)N[C@@H](CC(=O)O)C(=O)N[C@@H](CCC(=O)O)C(=O)N(C)[C@@H](CC(=O)O)C(N)=O)[C@@H](C)O
B27: …aDED (peptide)
peptide: Ac-ETEFIAWGPT[dA]DED-NH2
SMILES: CC[C@H](C)[C@H](NC(=O)[C@H](Cc1ccccc1)NC(=O)[C@H](CCC(=O)O)NC(=O)[C@@H](NC(=O)[C@H](CCC(=O)O)NC(C)=O)[C@@H](C)O)C(=O)N[C@@H](C)C(=O)N[C@@H](Cc1c[nH]c2ccccc12)C(=O)NCC(=O)N1CCC[C@H]1C(=O)N[C@H](C(=O)N[C@H](C)C(=O)N[C@@H](CC(=O)O)C(=O)N[C@@H](CCC(=O)O)C(=O)N[C@@H](CC(=O)O)C(N)=O)[C@@H](C)O
B28: ETEFIAWaPTGDED (peptide)
peptide: Ac-ETEFIAW[dA]PTGDED-NH2

Non-standard residues stand in square brackets, D forms with d. NMeW = CN[C@@H](Cc1c[nH]c2ccccc12)C(=O)O; NMeF = CN[C@@H](Cc1ccccc1)C(=O)O; NMeI = CC[C@H](C)[C@H](NC)C(=O)O; NMeT = CN[C@H](C(=O)O)[C@@H](C)O; NMeE = CN[C@@H](CCC(=O)O)C(=O)O; NMeD = CN[C@@H](CC(=O)O)C(=O)O; Sar = CNCC(=O)O

The target of this assay is Sushi domains (SD1/2) protein of the GABAB1a (GB1a) subunit, recombinant. The assay is described as follows: FP competition.
Sequence of Sushi domains (SD1/2) protein of the GABAB1a (GB1a) subunit, recombinant (Q9Z0U4 29-158): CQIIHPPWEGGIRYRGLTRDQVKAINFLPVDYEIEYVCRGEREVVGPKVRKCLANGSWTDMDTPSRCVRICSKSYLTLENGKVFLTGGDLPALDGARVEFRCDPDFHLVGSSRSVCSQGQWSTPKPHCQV
For orientation: Ki means the dissociation constant of the complex between target and ligand, obtained from inhibition or displacement. For B1, the Ki turned out to be 0.077 µM.

For B2, the Ki was 1.51 µM.

As for B3, the Ki stood at 0.178 µM.

In the case of B4, the Ki was found to be 0.029 µM.

Take B5: the inhibition constant Ki turned out to be 46.6 µM.

In the case of B6, the Ki is 0.046 µM.

As to B7, the Ki stood at 0.032 µM.

In the case of B8, the Ki was 0.132 µM.

In the case of B9, the inhibitory constant (Ki) turned out to be 1.03 µM.

Turning to B10, the Ki was found to be 0.159 µM.

Consider B11, for which the Ki is 0.877 µM.

In the case of B12, the Ki worked out at 0.552 µM.

In the case of B13, the Ki is 0.039 µM.

Take B14: the Ki worked out at 0.318 µM.

In the case of B15, the Ki was found to be 0.044 µM.

B16: the Ki is 0.035 µM.

With B17, the Ki is 0.352 µM.

B18: the Ki amounted to 0.93 µM.

Regarding B19, the Ki was 0.252 µM.

Consider B20, for which the inhibitory constant (Ki) was 0.031 µM.

Turning to B21, the Ki was 0.911 µM.

On to B22, for which the Ki stood at 0.033 µM.

For B23, the Ki was 0.056 µM.

As to B24, the Ki amounted to 0.037 µM.

Turning to B25, the Ki amounted to 0.045 µM.

For the molecule B26, the Ki is 0.029 µM.

On to B27, for which the Ki was found to be 0.054 µM.

B28: the Ki came out at 5.4 µM.
